Experimental data reported in patent publication US20050008648A1.

Molecular target: CD33 (UniProt P20138)
Assay: cell-based or functional assay

Chain of HuM195-dCK conjugate (B2R8V6 whole entry): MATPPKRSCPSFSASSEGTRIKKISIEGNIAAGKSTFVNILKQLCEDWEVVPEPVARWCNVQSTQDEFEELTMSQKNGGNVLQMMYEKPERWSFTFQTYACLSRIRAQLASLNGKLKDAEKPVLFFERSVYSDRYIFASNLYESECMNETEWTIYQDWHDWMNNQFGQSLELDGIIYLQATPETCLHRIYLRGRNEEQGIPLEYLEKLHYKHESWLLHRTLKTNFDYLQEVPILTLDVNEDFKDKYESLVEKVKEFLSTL
Chain of CD33 (P20138 18-364 limits assumed): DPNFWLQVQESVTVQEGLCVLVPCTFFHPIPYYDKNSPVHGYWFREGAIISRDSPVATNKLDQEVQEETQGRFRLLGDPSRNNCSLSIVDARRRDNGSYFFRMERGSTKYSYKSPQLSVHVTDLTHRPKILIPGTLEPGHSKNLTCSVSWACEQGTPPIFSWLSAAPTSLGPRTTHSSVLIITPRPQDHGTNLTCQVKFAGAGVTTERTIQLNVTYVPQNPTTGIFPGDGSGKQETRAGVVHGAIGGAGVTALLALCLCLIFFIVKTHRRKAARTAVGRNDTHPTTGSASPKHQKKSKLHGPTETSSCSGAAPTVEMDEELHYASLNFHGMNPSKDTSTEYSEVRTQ

HuM195-dCK conjugate
apoptosis assay on NB4 cells, conjugate with AraC 250 nM: 65%
cell death of HL60 cells (Annexin V and propidium iodide staining), conjugate in combination with AraC 1 µM: 70%
